{"source": "IntAct's records for PubMed 11259577", "parents": {"B1": {"name": "Insulin receptor substrate 1 (Rattus norvegicus (Rat)), P35570 (parent)", "chain": "MASPPDTDGFSDVRKVGYLRKPKSMHKRFFVLRAASEAGGPARLEYYENEKKWRHKSSAPKRSIPLESCFNINKRADSKNKHLVALYTRDEHFAIAADSEAEQDSWYQALLQLHNRAKAHHDGAGGGCGGSCSGSSGVGEAGEDLSYDTGPGPAFKEVWQVILKPKGLGQTKNLIGIYRLCLTSKTISFVKLNSEAAAVVLQLMNIRRCGHSENFFFIEVGRSAVTGPGEFWMQVDDSVVAQNMHETILEAMRAMSDEFRPRTKSQSSSSCSNPISVPLRRHHLNNPPPSQVGLTRRSRTESITATSPASMVGGKPGSFRVRASSDGEGTMSRPASVDGSPVSPSTNRTHAHRHRGSSRLHPPLNHSRSIPMPSSRCSPSATSPVSLSSSSTSGHGSTSDCLFPRRSSASVSGSPSDGGFISSDEYGSSPCDFRSSFRSVTPDSLGHTPPARGEEELSNYICMGGKGASTLTAPNGHYILSRGGNGHRYIPGATMGTSPALTGDEAAGAADLDNRFRKRTHSAGTSPTISHQKTPSQSSVVSIEEYTEMMPAAYPPGGGSGGRLPGYRHSAFVPTHSYPEEGLEMHHLERRGGHHRPDSSNLHTDDGYMPMSPGVAPVPSNRKGNGDYMPMSPKSVSAPQQIINPIRRHPQRVDPNGYMMMSPSGSCSPDIGGGSCSSSSISAAPSGSSYGKPWTNGVGGHHTHALPHAKPPVESGGGKLLPCTGDYMNMSPVGDSNTSSPSECYYGPEDPQHKPVLSYYSLPRSFKHTQRPGEPEEGARHQHLRLSSSSGRLRYTATAEDSSSSTSSDSLGGGYCGARPESSVTHPHHHALQPHLPRKVDTAAQTNSRLARPTRLSLGDPKASTLPRVREQQQQQQQQQQSSLHPPEPKSPGEYVNIEFGSGQPGYLAGPATSRSSPSVRCLPQLHPAPREETGSEEYMNMDLGPGRRATWQESGGVELGRVGPAPPGAASICRPTRSVPNSRGDYMTMQIGCPRQSYVDTSPVAPVSYADMRTGIAAEKVSLPRTTGAAPPPSSTASASASVTPQGAAEQAAHSSLLGGPQGPGGMSAFTRVNLSPNHNQSAKVIRADTQGCRRRHSSETFSAPTRAANTVSFGAGAAGGGSGGGSEDVKRHSSASFENVWLRPGDLGGASKESAPGCGAAGGLEKSLNYIDLDLVKDVKQHPQDCPSQQQSLPPPPPHQPLGSNEGSSPRRSSEDLSTYASINFQKQPEDRQ", "partner": "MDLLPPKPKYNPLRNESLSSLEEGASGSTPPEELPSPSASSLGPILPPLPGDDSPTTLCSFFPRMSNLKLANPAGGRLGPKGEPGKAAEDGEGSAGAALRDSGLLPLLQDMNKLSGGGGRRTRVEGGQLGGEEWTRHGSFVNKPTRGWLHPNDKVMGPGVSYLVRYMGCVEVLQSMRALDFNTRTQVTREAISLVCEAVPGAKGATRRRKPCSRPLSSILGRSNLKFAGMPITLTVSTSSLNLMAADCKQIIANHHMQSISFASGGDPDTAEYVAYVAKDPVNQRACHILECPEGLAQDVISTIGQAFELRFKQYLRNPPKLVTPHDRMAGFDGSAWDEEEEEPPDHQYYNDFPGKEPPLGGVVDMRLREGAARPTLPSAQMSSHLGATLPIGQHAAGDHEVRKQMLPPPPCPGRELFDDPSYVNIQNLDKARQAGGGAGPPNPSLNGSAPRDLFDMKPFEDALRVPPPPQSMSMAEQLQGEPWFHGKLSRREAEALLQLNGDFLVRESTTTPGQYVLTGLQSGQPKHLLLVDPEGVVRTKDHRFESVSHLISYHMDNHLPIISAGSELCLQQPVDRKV"}}}
{"variants_of": "B1", "conditions": "with shc1_mouse Shc1, P98083"}
{"variant": "Y895F", "effect of a mutation on the interaction": "with no effect"}
